Three molecules from PMC3020774 (The Journal of Biological Chemistry, 2010) can be followed below.

B3: recombinant ZHD5-MBP fusion protein (natural protein)
chain: MDMRSHEMIERRREDNGNNNGGVVISNIISTNIDDNCNGNNNNTRVSCNSQTLDHHQSKSPSSFSISAAAKPTVRYRECLKNHAASVGGSVHDGCGEFMPSGEEGTIEALRCAACDCHRNFHRKEMDGVGSSDLISHHRHHHYHHNQYGGGGGRRPPPPNMMLNPLMLPPPPNYQPIHHHKYGMSPPGGGGMVTPMSVAYGGGGGGAESSSEDLNLYGQSSGEGAGAAAGQMAFSMSSSKKRFRTKFTTDQKERMMDFAEKLGWRMNKQDEEELKRFCGEIGVKRQVFKVWMHNNKNNAKKPPTPTTTL

In data set [1] the target is B3. Put plainly: native gel or EMSA. On the technique in general: In EMSA bound probe runs differently from free probe, usually more slowly.
The target of a further data set is T1, ZHD5-MBP (UniProt Q9FRL5 1-309).
T1 sequence: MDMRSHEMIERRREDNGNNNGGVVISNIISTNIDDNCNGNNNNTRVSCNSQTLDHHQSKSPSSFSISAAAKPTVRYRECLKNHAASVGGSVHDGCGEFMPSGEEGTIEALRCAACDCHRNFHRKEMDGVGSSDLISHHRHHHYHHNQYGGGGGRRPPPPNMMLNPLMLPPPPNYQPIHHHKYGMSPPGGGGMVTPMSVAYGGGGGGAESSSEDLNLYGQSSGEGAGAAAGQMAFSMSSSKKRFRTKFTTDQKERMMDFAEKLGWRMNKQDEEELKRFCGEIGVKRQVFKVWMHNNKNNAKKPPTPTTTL
Put plainly: EMSA.

The data set “native gel or EMSA” deals with the molecule itself. Put plainly: native gel or EMSA.

B1: recombinant MIF1-GST fusion protein (natural protein)
chain: MMKKRQMVIKQRSRNSNTSSSWTTTSSSSSSSEISNVRYVECQKNHAANIGGYAVDGCREFMAAGVEGTVDALRCAACGCHRNFHRKEVDTEVVCEYSPPNA
As for B1, the binding result in data set [1] is “binds”.

B2: ATTA EMSA probe (dsDNA)
DNA 1: CAGTGTCTTGTAATTAAAAA
DNA 2: TTTTTAATTACAAGACACTG
Take B2: the binding result in the data set with ZHD5-MBP was “binds”.

Turning to B3, the binding result in “native gel or EMSA” is listed as “binds”.
